Results from the supplement of paper PMC10724198.
± gives the standard deviation of the averaged measurements.

System: Saccharomyces cerevisiae
Assay: protein stability index of tFT-peptide fusion (C-terminal peptide) (PSI (0-1 scale)); higher = more stable (slower turnover)
Settings: genetic background: wild type; temperature: 30 C
Protocol: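 MPS profiling in S. cerevisiae of the yeast C-terminome library: the last 12 aa of each annotated ORF are fused to the C-terminus of a sfGFP-mCherry timer, after a GGGS linker. Cells are FACS-sorted into 8 mCherry/sfGFP bins and deep-sequenced. PSI runs from 0 (unstable) to 1 (stable); wild type and das1Δ backgrounds, two technical replicates each.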

Q: For LIEDVNKLKIKA [SOV1 C-terminal 12 aa], which protein stability index is on record?
A: 0.645 ± 0.025

Q: With LISRRREDEERN [YPL216W C-terminal 12 aa] as the sequence, how does the protein stability index read?
A: 0.726 ± 0.037

Q: With LIVVLLLLLLVL [SYN8 C-terminal 12 aa] as the sequence, how does the protein stability index read?
A: 0.545 ± 0.12

Q: How did the protein stability index turn out when LKEASRYILEVY [MET10 C-terminal 12 aa] was run?
A: 0.31 ± 0.0096

Q: For LKGILNLFSKIR [KRE29 C-terminal 12 aa], which protein stability index is on record?
A: 0.699 ± 0.025

Q: LKHFVSAPSSSL [MRK1 C-terminal 12 aa] was tested. Which protein stability index did it give?
A: 0.656 ± 0.0095

Q: How did the protein stability index turn out when LKNKKKLYKTKV [PPQ1 C-terminal 12 aa] was run?
A: 0.694 ± 0.017

Q: For LKTSGRYQEDVW [NCP1 C-terminal 12 aa], which protein stability index is on record?
A: 0.702 ± 0.02

Q: How did the protein stability index turn out when LLEVSDQAFEPE [RGD1 C-terminal 12 aa] was run?
A: 0.683 ± 0.053

Q: Which protein stability index does the source give for LLGENLSDMPSL [RDS1 C-terminal 12 aa] here?
A: 0.693 ± 0.021

Q: How did the protein stability index turn out when LLQHPWLDAHII [STE11 C-terminal 12 aa] was run?
A: 0.7253 ± 0.0019

Q: LLQVCFIGVVCE [IRC21 C-terminal 12 aa] was tested. Which protein stability index did it give?
A: 0.2885 ± 0.0018

Q: How did the protein stability index turn out when LNAVESLKEAST [TIM11 C-terminal 12 aa] was run?
A: 0.686 ± 0.029

Q: How did the protein stability index turn out when LNKIKNIRKKKQ [SNQ2 C-terminal 12 aa] was run?
A: 0.393 ± 0.021

Q: For LNLPVQVEKKEK [MMR1 C-terminal 12 aa], which protein stability index is on record?
A: 0.692 ± 0.013

Q: For LNSYEEEANGST [SHG1 C-terminal 12 aa], which protein stability index is on record?
A: 0.734 ± 0.028

Q: Which protein stability index does the source give for LQHYRTHLKKGQ [NRG1 C-terminal 12 aa] here?
A: 0.6784 ± 0.0039

Q: Which protein stability index does the source give for LQSLPISSWRCT [YBR220C C-terminal 12 aa] here?
A: 0.6711 ± 0.003

Q: For LQVILMSLGAIA [MDM31 C-terminal 12 aa], which protein stability index is on record?
A: 0.508 ± 0.0098

Q: Which protein stability index does the source give for LRANANMPTPSL [RLF2 C-terminal 12 aa] here?
A: 0.665 ± 0.0083

Q: With LRKDRQVEYPYK [MGM101 C-terminal 12 aa] as the sequence, how does the protein stability index read?
A: 0.779 ± 0.035

Q: For LRLKYNDANTKL [VTC1 C-terminal 12 aa], which protein stability index is on record?
A: 0.6552 ± 0.0047

Q: LSCRKNLSAFAT [YOL085C C-terminal 12 aa] was tested. Which protein stability index did it give?
A: 0.666 ± 0.0096

Q: Which protein stability index does the source give for “LSIMKTLVPWTL [YML054C-A C-terminal 12 aa]” here?
A: 0.6528 ± 0.0022

Q: How did the protein stability index turn out when LTEILSKVFNRL [DUG2 C-terminal 12 aa] was run?
A: 0.678 ± 0.033

Q: How did the protein stability index turn out when LTFDVKLVSMKN [FPR3 C-terminal 12 aa] was run?
A: 0.667 ± 0.046

Q: LTLARYRAKGML [TOM71 C-terminal 12 aa] was tested. Which protein stability index did it give?
A: 0.657 ± 0.018

Q: For LVICCQRCRRNC [YPL277C C-terminal 12 aa], which protein stability index is on record?
A: 0.552 ± 0.051

Q: For LVKLYISFFFMC [YBR144C C-terminal 12 aa], which protein stability index is on record?
A: 0.136 ± 0.0087

Q: LVLLLQIYFFSF [YGR242W C-terminal 12 aa] was tested. Which protein stability index did it give?
A: 0.296 ± 0.0078

Q: Which protein stability index does the source give for LVRQKREHEKKE [GPT2 C-terminal 12 aa] here?
A: 0.658 ± 0.021

Q: With LVYRDGEISELK [PAT1 C-terminal 12 aa] as the sequence, how does the protein stability index read?
A: 0.703 ± 0.13

Q: LWNEFLSSINEK [ECM31 C-terminal 12 aa] was tested. Which protein stability index did it give?
A: 0.743 ± 0.06

Q: With MAMPPGQSQPQY [DHH1 C-terminal 12 aa] as the sequence, how does the protein stability index read?
A: 0.713 ± 0.034

Q: Which protein stability index does the source give for MCSIINIQQWYV [YGL182C C-terminal 12 aa] here?
A: 0.627 ± 0.01

Q: For MDGFNDPFAAAA [GIP2 C-terminal 12 aa], which protein stability index is on record?
A: 0.752 ± 0.072

Q: For “MDSGLDLEFCKP [YKR075W-A C-terminal 12 aa]”, which protein stability index is on record?
A: 0.692 ± 0.045

Q: How did the protein stability index turn out when MESNDNLERVLS [APS1 C-terminal 12 aa] was run?
A: 0.695 ± 0.032

Q: MISGPSSSSSAP [CYC3 C-terminal 12 aa] was tested. Which protein stability index did it give?
A: 0.741 ± 0.081

Q: With MKVLQLGFSWGG [IRC7 C-terminal 12 aa] as the sequence, how does the protein stability index read?
A: 0.6814 ± 0.0067

Q: MMNFFRDLKYGH [ODC2 C-terminal 12 aa] was tested. Which protein stability index did it give?
A: 0.693 ± 0.018

Q: How did the protein stability index turn out when MNKAEDDISEEE [SUB1 C-terminal 12 aa] was run?
A: 0.684 ± 0.011

Q: With “MNRNKSDVPYLQ [YER053C-A C-terminal 12 aa]” as the sequence, how does the protein stability index read?
A: 0.658 ± 0.027

Q: MPPEHPFYSHYR [YNL193W C-terminal 12 aa] was tested. Which protein stability index did it give?
A: 0.729 ± 0.01

Q: How did the protein stability index turn out when MQTKIEHYMESI [MRX12 C-terminal 12 aa] was run?
A: 0.68 ± 0.053

Q: Which protein stability index does the source give for MRKHLRVSPFLF [YDL071C C-terminal 12 aa] here?
A: 0.329 ± 0.0068

Q: How did the protein stability index turn out when MVVIVLFLSYRN [YGL177W C-terminal 12 aa] was run?
A: 0.275 ± 0.031

Q: How did the protein stability index turn out when MWPMPSLPWNGM [TSR1 C-terminal 12 aa] was run?
A: 0.687 ± 0.017

Q: With NAASLIGTQQNN [DNF1 C-terminal 12 aa] as the sequence, how does the protein stability index read?
A: 0.685 ± 0.013

Q: For NALKSKQKNKDD [AYR1 C-terminal 12 aa], which protein stability index is on record?
A: 0.698 ± 0.044

Q: For NCPGCESKPVIT [SSL1 C-terminal 12 aa], which protein stability index is on record?
A: 0.683 ± 0.0096

Q: Which protein stability index does the source give for NDDSKDEVDIIP [YPR196W C-terminal 12 aa] here?
A: 0.698 ± 0.015

Q: NDISFAFQYISH [RAD54 C-terminal 12 aa] was tested. Which protein stability index did it give?
A: 0.683 ± 0.069

Q: How did the protein stability index turn out when NDNHNPFYIREE [CDC26 C-terminal 12 aa] was run?
A: 0.705 ± 0.049

Q: For NEKLSRESKGSE [SYF2 C-terminal 12 aa], which protein stability index is on record?
A: 0.691 ± 0.014

Q: How did the protein stability index turn out when NENEFIAICTDS [CDC31 C-terminal 12 aa] was run?
A: 0.695 ± 0.022

Q: How did the protein stability index turn out when NENIHSLIGNSY [NNF2 C-terminal 12 aa] was run?
A: 0.693 ± 0.0087

Q: With NENSEIISIDED [CTR86 C-terminal 12 aa] as the sequence, how does the protein stability index read?
A: 0.65 ± 0.023

Q: For NFQREVIDNSKL [LDH1 C-terminal 12 aa], which protein stability index is on record?
A: 0.719 ± 0.067

Q: NGKKNEAYEGFV [EXP1 C-terminal 12 aa] was tested. Which protein stability index did it give?
A: 0.722 ± 0.014

Q: How did the protein stability index turn out when NIIHSGDVLLAE [LEU9 C-terminal 12 aa] was run?
A: 0.708 ± 0.035

Q: NILKVDSNSSSS [RGR1 C-terminal 12 aa] was tested. Which protein stability index did it give?
A: 0.702 ± 0.029

Q: Which protein stability index does the source give for NKGPPCKTSALL [HMG2 C-terminal 12 aa] here?
A: 0.668 ± 0.011

Q: Which protein stability index does the source give for NKNLHGINTNEF [TRE1 C-terminal 12 aa] here?
A: 0.6665 ± 0.0019

Q: With “NLPFYKNQATLQ [YBR131C-A C-terminal 12 aa]” as the sequence, how does the protein stability index read?
A: 0.707 ± 0.031

Q: Which protein stability index does the source give for NLRADSFLQYPL [YDR029W C-terminal 12 aa] here?
A: 0.714 ± 0.021

Q: Which protein stability index does the source give for NNKSIQKVNSPS [PAC2 C-terminal 12 aa] here?
A: 0.807 ± 0.035

Q: For NPHPRIQMKMSV [CDC21 C-terminal 12 aa], which protein stability index is on record?
A: 0.624 ± 0.048

Q: For NPPERAKVNARS [RCR1 C-terminal 12 aa], which protein stability index is on record?
A: 0.68 ± 0.042

Q: “NPSLRQSRIQGW [YGR161W-C C-terminal 12 aa]” was tested. Which protein stability index did it give?
A: 0.731 ± 0.034

Q: For NPTALEKGIKDL [TRX3 C-terminal 12 aa], which protein stability index is on record?
A: 0.69 ± 0.016

Q: NPVVNRHIEHDD [COX13 C-terminal 12 aa] was tested. Which protein stability index did it give?
A: 0.707 ± 0.017

Q: For NRPGKSRRARRF [EBP2 C-terminal 12 aa], which protein stability index is on record?
A: 0.668 ± 0.016

Q: NSAGLLTLEYLS [TFC6 C-terminal 12 aa] was tested. Which protein stability index did it give?
A: 0.719 ± 0.036

Q: How did the protein stability index turn out when NSKSNGNLFNSQ [NDD1 C-terminal 12 aa] was run?
A: 0.682 ± 0.015

Q: With NTSLLFKKWEGS [CEM1 C-terminal 12 aa] as the sequence, how does the protein stability index read?
A: 0.702 ± 0.04

Q: NTSTYGQTVQPV [YLR456W C-terminal 12 aa] was tested. Which protein stability index did it give?
A: 0.678 ± 0.041

Q: For NVSDLFQWQNAK [CAT8 C-terminal 12 aa], which protein stability index is on record?
A: 0.683 ± 0.047

Q: Which protein stability index does the source give for NVTAVKALNECF [SKI3 C-terminal 12 aa] here?
A: 0.652 ± 0.026

Q: With NWDQHNPRNSIH [IRC10 C-terminal 12 aa] as the sequence, how does the protein stability index read?
A: 0.78 ± 0.067

Q: How did the protein stability index turn out when NYTLTVENKNKV [SPC3 C-terminal 12 aa] was run?
A: 0.734 ± 0.03

Q: With PAAIKQAIAANA [TRX1 C-terminal 12 aa] as the sequence, how does the protein stability index read?
A: 0.489 ± 0.013
